Where a chain is given by its changes, count along the chain named.
B1: reference antibody 29-AM4-5 (antibody, V domains shown)
VH: EVQLVESGGGLVQPGGSLRLSCAASGFNISYYFIHWVRQAPGKGLEWVASVYSSFGYTYYADSVKGRFTISADTSKNTAYLQMNSLRAEDTAVYYCARFTFPGLFDGFFGAYLGSLDYWGQGTLVTVSS
VL: DIQMTQSPSSLSASVGDRVTITCRASQSVSSAVAWYQQKPGKAPKLLIYSASSLYSGVPSRFSGSRSGTDFTLTISSLQPEDFATYYCQQAVNWVGALVTFGQGTKVEIK
B2: Antibody 035 (hybridoma antibody) (antibody, V domains shown)
VH: QIQLVQSGPELRKPGETVKISCKASGYSFTNYAMNWVKQAPGKVLKWMGFINTYTGEPTYADDFKGRFAFSLETSASTAYLQINNLKNEDTATYFCTRTRGYYDFDGGAFDYWGQGTSLTVSS
VL: DIVMTQSQKFMSTSIGDRVSVTCKASQNVGTHLAWYQQKPGQSPKALIFSASYRYIGVPDRFTGSGSGTDFTLTITNVQSEDLAEYFCQQYNTYPLTFGAGTKLELK
notes: mouse hybridoma antibody
B3: reference antibody KWAR23 (antibody, V domains shown)
VH: EVQLQQSGAELVKPGASVKLSCTASGFNIKDYYIHWVQQRTEQGLEWIGRIDPEDGETKYAPKFQDKATITADTSSNTAYLHLSSLTSEDTAVYYCARWGAYWGQGTLVTVSS
VL: QIVLTQSPAIMSASPGEKVTLTCSASSSVSSSYLYWYQQKPGSSPKLWIYSTSNLASGVPARFSGSGSGTSYSLTISSMEAEDAASYFCHQWSSYPRTFGAGTKLELK
B4: Antibody 050 (hybridoma antibody) (antibody, V domains shown)
VH: QIQLVQSGPELKKPGETVKISCKASGYTFTHYSMHWVKQAPGKGLKWMGWINTETAEPTYVDDFKGRFAFSLEASASTAFFQINNLKNEDTATYFCARGGLRQGDYWGQGTTLTVSS
VL: B3 VL with A9P, S26T, S31A, Y37F, S78N, A81P, E82A, R97Y, A101G, L107I
notes: mouse hybridoma antibody
B5: Antibody 022 (hybridoma antibody) (antibody, V domains shown)
VH: QIQLVQSGPELKKPGETVKISCKASGYTFTDYAMHWVKQAPGKGLKWMGWKNTETGESTYAEDFKGRFAFFLETSASTAYLQINNVKNEDTATYFCARGGYGSNYVMDYWGQGTSVIVSS
VL: DIQMTQSSSSFSVSLGDRVTITCKASEDIYNRLAWYQQKPGNAPRLLISGATSLETGVPSRFSGSGSGKDYTLSITSLQTEDVATYYCQQYWNSPRTFGGGTKLEIK
notes: mouse hybridoma antibody
B6: chimeric antibody 035c (antibody, V domains shown)
VH: B2 VH
VL: B2 VL
B7: chimeric antibody 050c (antibody, V domains shown)
VH: B4 VH
VL: B3 VL with A9P, S26T, S31A, Y37F, S78N, A81P, E82A, R97Y, A101G, L107I
B8: chimeric antibody 022c (antibody, V domains shown)
VH: B5 VH
VL: B5 VL
B9: chimeric antibody 074c (antibody, V domains shown)
VH: QVQLQQPRAELVKPGASVMLSCKASGYTFSSYWIHWVRQGPGQGLEWIGLIHPNSGNTDCSETFKNKATLTVDTSSSTAYMQLSSLASEDSAVYYCARDGASYDWFVHWGQGTLVTVSA
VL: not shown
B10: chimeric antibody 002c (antibody, V domains shown)
VH: EVKLEESGGGLVQPGGSMILSCVASGFTFRNYWMNWVRQSPERGLEWIAEITLKSNTYATHYAESVKGRFAISRDDSKSSFYLQMNDLRPEDTGIYYCTTFTKVVADWHLDVWGAGTTVTVSS
VL: DVLMTQTPLSLPVSLGDQASISCRSSQNIVHSNGNTYLEWYLQKPGQSPKLLIYKISNRFSGVPDRFSGSGSGTDFTLRISRVEAEDLGVYYCFQGSHVPFTFGSGTKLEIQ
B11: chimeric antibody 032c (antibody, V domains shown)
VH: B10 VH with K3R, I19K, A24V
VL: B10 VL with S14N, I56V, Q112K

Molecular target: T1, Fc tagged human SIRPγ ECD recombinant protein (human, UniProt Q9P1W8 29-360)
T1 construct: range 1-360; cloned range includes the signal peptide; also called hSIRPγ; not shown: human IgG Fc region (hFc) of the pCPC vector
Assay: ELISA
Summary of the method: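 Antibodies were incubated on plates coated with recombinant SIRP ECD antigens for 1 h at 37° C. Detection used HRP anti-mouse or anti-human IgG (1 h, 37° C), then TMB for 15 min at room temperature, stopped with 1N HCl. EC₅₀ was derived from OD 450 nm.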

Row | EC50 | Binder
1 | 0.22 nM | B1
2 | 2.22 nM | B2
3 | 0.15 nM | B3
4 | 0.38 nM | B4
5 | 0.76 nM | B5

Molecular target: T1, Fc tagged human SIRPγ ECD recombinant …
Assay: ELISA
Remark: another data set of the same source
Summary of the method: (§1)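 Read-out: OD 450 nm after TMB development (15 min, RT) and 1N HCl stop; EC₅₀ calculated. Antibodies bound to coated antigen 1 h at 37° C., detected via HRP anti-mouse/anti-human IgG secondary, 1 h at 37° C.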

Row | EC50 | Binder
6 | 0.11 nM | B1
7 | 6.11 nM | B6
8 | 0.27 nM | B7
9 | 0.05 nM | B3
10 | 18.7 nM | B8

Molecular target: T2, Fc tagged human SIRPα v2 ECD recombinant protein (human)
T2 construct: range 1-369; cloned range M1-R369 includes the signal peptide; also called hSIRPα V2
Assay: ELISA
Summary of the method: as §1

Row | EC50 | Binder
11 | 0.08 nM | B1
12 | 0.14 nM | B9
13 | 0.06 nM | B10
14 | 0.11 nM | B11
15 | 0.08 nM | B6
16 | 0.1 nM | B7
17 | 0.09 nM | B3
18 | 0.11 nM | B8

Molecular target: T3, Fc tagged human SIRPβ ECD recombinant protein (human, UniProt O00241 30-371)
T3 construct: range 1-371; cloned range includes the signal peptide; also called hSIRPβ; not shown: human IgG Fc region (hFc) of the pCPC vector
Assay: ELISA
Summary of the method: as §1

Row | EC50 | Binder
19 | 0.08 nM | B1
20 | 0.11 nM | B9
21 | 0.11 nM | B10
22 | 0.12 nM | B11
23 | 0.08 nM | B6
24 | 0.08 nM | B7
25 | 0.08 nM | B3
26 | 0.08 nM | B8

Molecular target: T1, Fc tagged human SIRPγ ECD recombinant …
Assay: ELISA
Remark: another data set of the same source
Summary of the method: as §1

Row | EC50 | Binder
27 | 0.11 nM | B1
28 | 6.11 nM | B6
29 | 0.27 nM | B7
30 | 0.05 nM | B3
31 | 18.7 nM | B8

Molecular target: T4, Fc tagged human SIRPα v1 ECD recombinant protein (human, UniProt P78324 31-370)
T4 construct: range 1-370; cloned range M1-R370 includes the signal peptide; also called hSIRPα V1; not shown: human IgG Fc region (hFc) of the pCPC vector
Assay: ELISA

Row | EC50 | Binder
32 | 0.16 nM | B6

Molecular target: T2, Fc tagged human SIRPα v2 ECD …
Assay: ELISA
Remark: another data set of the same source

Row | EC50 | Binder
33 | 0.13 nM | B6

Molecular target: T3, Fc tagged human SIRPβ ECD recombinant …
Assay: ELISA
Remark: another data set of the same source

Row | EC50 | Binder
34 | 0.13 nM | B6

Molecular target: T1, Fc tagged human SIRPγ ECD recombinant …
Assay: ELISA
Remark: another data set of the same source

Row | EC50 | Binder
35 | 16.4 nM | B6

Molecular target: T5, 6×His tagged human SIRPα v8 ECD recombinant protein (human)
T5 construct: extracellular domain; bought; also called hSIRPα V8
Assay: ELISA

Row | EC50 | Binder
36 | 0.2 nM | B6

Molecular target: 6×His tagged human SIRPα v2 ECD recombinant protein (human)
Assay: SPR (Biacore)
Procedure: Anti-SIRPα chimeric antibodies were characterized for binding affinity against human SIRPα v1, human SIRPα v2 and C57BL/6 mouse SIRPα using Biacore (GE). Briefly the antibodies to be tested were captured to CM5 chip (GE) using Human Antibody Capture Kit (GE). The antigens of 6×His tagged human SIRPα v1, human SIRPα v2 and C57BL/6 mouse SIRPα ECD recombinant proteins were serially diluted for multiple doses and injected at 30 μl/min for 180 s. Buffer flow was maintained for dissociation of 400 s. 3 M MgCl₂ was used for chip regeneration. The association and dissociation curves were fit with 1:1 binding model, and the Ka/Kd/KD values for each antibody were calculated.
hu035.01, the first version of humanized 035, was characterized by FACS assay using CHOK1-human SIRPα v1-1B4 cells, ELISA assay using Fc tagged human SIRPα v2 ECD recombinant protein and SPR analysis using the antigen of 6×His tagged human SIRPα v2 ECD recombinant protein (refer to methods described in Example 3.4, Example 3.3 and Example 4.3). […] In particular, hu035.01 cannot be detected to bind with C57BL/6 mouse SIRPα ECD in ELISA assay possibly due to reduced binding activity (FIG. 5B).

Row | Kd | Binder
37 | 0.61 nM | B6

Molecular target: T6, biotin labeled soluble human SIRPα v1 ECD recombinant protein (human, UniProt P78324 31-373, biotin labeled)
T6 construct: extracellular domain
Assay: competitive ELISA; competitor 29-AM4-5
Procedure: Competitive ELISA assay was used for epitope binning of 9 functional antibodies. Briefly excessive competitor antibody and biotin labeled soluble human SIRPα v1 ECD recombinant protein were co-incubated with ELISA microplate coated antibody. After washing, HRP-SA was added and incubated at 37° C. for 1 hour. Then, […] of TMB solution (Biotechnology) was added. After incubation for 15 minutes at room temperature, the reaction was stopped by the addition of […] of 1N HCl. OD 450 nm was read. Competition ratio was calculated. The antibodies that can compete each other for binding to SIRPα have the similar binding epitope.

Row | % Competition | Binder
38 | 91% | B1
39 | 50% | B2
40 | 54% | B3
41 | -6% | B4
42 | 2% | B5

Molecular target: T1, Fc tagged human SIRPγ ECD recombinant …
Assay: competitive ELISA, biotin-CD47 ECD to coated SIRPγ ECD
Procedure: For CD47 and SIRPγ interaction blocking activity detection, antibody and biotin labeled soluble human CD47 ECD recombinant protein were co-incubated with ELISA microplate coated human SIRPγ ECD recombinant protein. After washing, horseradish peroxidase labeled streptavidin (HRP-SA, Sigma) was added and incubated at 37° C. for 1 hour. Then, 100 μl/well of TMB solution (Biotechnology) was added. After incubation for 15 minutes at room temperature, the reaction was stopped by the addition of 50 μl of 1N HCl. OD 450 nm was read. Blocking ratio and IC₅₀ was calculated. In comparison with other known anti-SIRPα antibodies, 022, 050, 055, and 074 cannot block CD47 and SIRPα interaction. In particular, all of the antibodies of the invention cannot block CD47 and SIRPγ interaction.

Row | IC50 | Binder
43 | 3.4 nM | B1
44 | 1 nM | B3

From patent publication US20210347908A1 (ELPISCIENCE SUZHOU BIOPHARMA, published 2021)
